± gives the standard deviation of the averaged measurements.
Tested on: ATP
Assay: switch fluorescence ratio, 500 uM ATP over buffer (Cy3 cluster intensity, sum of 5 cycles each) (fold (ratio)); higher = stronger signal-on switching upon ATP binding; sequences stand for … in TCGTCGGCAGCGTCAGATGTGTATAAGAGACAGTTTTTTTTTTTTTTTTTTTTTTTTT…TC
Conditions: aptamer strand: ATP DNA aptamer (quencher-CACCTGGGGGAGTATTGCGGAGGAAGG + anchor), 100 nM annealed; ATP concentration: 500 uM
Outline: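 After annealing to 100 nM quencher-labelled ATP aptamer, Cy3-labelled switching-strand clusters on a modified Illumina MiSeq flow-cell were imaged in selection buffer. A second image followed after 15 min with 500 uM ATP at 22 °C, and five such buffer/ATP cycles were done, each separated by NaOH stripping and re-annealing. The fluorescence ratio, averaged per switch-domain sequence, is summed target-cycle over summed buffer-cycle Cy3 intensity per cluster, with clusters outside 100-1000 RFU excluded.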
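Also: ATP exposure 15 min at 22 °C before imaging.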

Sequence	switch fluorescence ratio
AGTTGGGGTG	0.989 ± 0.034
GAGAGGGTTT	1 ± 0.011
GTATCTTACT	1.007 ± 0.0018
CCTGGATTTA	1.01 ± 0.011
TTGTTATAGG	1.06 ± 0.14
GAACAGGGGA	1.53 ± 0.68
GGTTGGGTTA	1.033 ± 0.0083
AAGGCTGAGT	1 ± 0.0011
GACACGGAAA	1.23 ± 0.29
CGCGCGATTA	1.02 ± 0.036
ATCAGACGGG	1 ± 0.025
CATTGAGTCG	0.98 ± 0.052
ATAGGGTGGG	1 ± 0.022
AAGGATGCGA	1.039 ± 0.0079
TTTGGGTGGC	1.03 ± 0.036
TCTGAAATTT	0.9727 ± 0.0067
CAATTTCGGT	0.996 ± 0.039
CCTCGGTGCG	1.02 ± 0.0087
TTACTGTTAC	1.32 ± 0.083
ACGAGTAGCT	1.01 ± 0.014
GCGGAAGAGC	1.06 ± 0.032
GCAGGGGGAA	1.08 ± 0.053
TTTGCGTTTT	1.01 ± 0.025
TGTTAAGATA	1.02 ± 0.092
ATGACGGTAG	0.97 ± 0.062

Sequence	switch fluorescence ratio
CTAGAAAGTT	0.9778 ± 0.0029
CCATAGCAGG	3.97 ± 0.9
AATGAATGCA	1.004 ± 0.0014
ATATGAAGGA	0.993 ± 0.013
TTAAAAATAT	1.02 ± 0.053
GGGTTTCTCT	0.994 ± 0.032
TATTTAATTT	0.997 ± 0.026
TTTGACGG	0.972 ± 0.023
CAGCGCGTCT	1.07 ± 0.06
ATGGTTTCGT	0.996 ± 0.037
ATTGGTTTGG	1.032 ± 0.01
TTTATACAA	1.018 ± 0.0097
AGTGGCATTA	0.985 ± 0.028
GGGGGGTAA	1.01 ± 0.019
TGCGGTGTCG	1.06 ± 0.083
ATGTGTCTG	0.987 ± 0.014
AGATGACGGG	0.975 ± 0.033
CATGTTAGTC	1.01 ± 0.012
AGCTGGTGGA	1.02 ± 0.024
ACTCGGGGTT	0.998 ± 0.04
TAACTAGCGA	1.027 ± 0.0041
CTCTGAGGGA	1.01 ± 0.027
TGGGATTGGC	1.01 ± 0.11
CTGGGGGTAT	1 ± 0.03
GGTGGGAGCA	1.04 ± 0.034

Sequence	switch fluorescence ratio
GATATTTCGT	0.9768 ± 0.0034
TTGATCAGTA	1.02 ± 0.02
GAAGGGGCAG	0.97 ± 0.014
CTAGGTTAAA	0.988 ± 0.023
TGGTGGGTCG	1.08 ± 0.069
TTTAAGTGAT	1.01 ± 0.057
AGGAAAGTAG	0.9719 ± 0.0097
GCGTCAATTG	1.02 ± 0.035
TTAAGAAGAC	1.04 ± 0.018
GGAGGGGTTT	1.01 ± 0.04
CCGGGGCTGG	1.04 ± 0.037
AAAATGGGGG	1 ± 0.03
GGTTTTGTAG	0.999 ± 0.012
TTAATCTGCC	1.15 ± 0.025
AGTTATATGT	0.985 ± 0.037
TTCGTCCTGG	1.01 ± 0.056
GGTGAGTTAC	0.98 ± 0.013
CGATGAAAGG	0.966 ± 0.023
TTGGTTTCTT	1.01 ± 0.023
GATTTAGGTT	0.999 ± 0.015
TCAAATATTT	0.979 ± 0.0025
GACAGGTGCG	1.274 ± 0.012
CATGTCTGTA	1
TTAGGTTTAA	1.02 ± 0.021
CGAGCTTGAG	0.99 ± 0.002

Sequence	switch fluorescence ratio
TTTATTTATT	0.998 ± 0.021
TGATAAATGT	1.13 ± 0.19
GTTGTGGGTA	0.975 ± 0.034
TTTTCGAATA	1.009 ± 0.005
GGGGGTGGG	1.03 ± 0.069
TTTTTCGTTT	0.997 ± 0.034
GTTGGGGCTG	0.973 ± 0.14
AAATTAACAT	1.08 ± 0.13
AACTGTGTG	0.987 ± 0.043
CGTTCAGCGG	0.996 ± 0.023
AGAAAGGATG	1.01 ± 0.032
CTGATCATTC	1.04 ± 0.045
TGGTTGTTAG	1.012 ± 0.0073
CGACAGCGGC	2.11 ± 0.094
CCAGGGGGGC	1.16 ± 0.061
CTTAGCTTGC	1.02 ± 0.054
GGGCTTAGTG	0.993 ± 0.0066
TTTTGAGCCA	0.983 ± 0.032
CCTGTTTATT	0.974 ± 0.012
TTATTCTCAC	1.031 ± 0.0064
CCGGGCTGGG	1.03 ± 0.018
AAGGTATGTC	1.01 ± 0.063
TTTATGGCCC	1.01 ± 0.064
GTCTTATTTA	0.976 ± 0.014
CTGGGGTTGG	0.968 ± 0.012

Sequence	switch fluorescence ratio
TTGCACAATT	1.01 ± 0.057
CCAAAGGGTT	1.036 ± 0.0034
AAATACGTCT	1.09 ± 0.096
GGGCTAGCCA	0.979 ± 0.011
CTGTTTTGGG	1.03 ± 0.032
TGTTTGTTAC	1.011 ± 0.0076
GGGGGAAGAC	1.04 ± 0.053
ATTTAAAGAT	0.987 ± 0.049
TGACGTTATC	1.18 ± 0.025
TACGTGTAGA	1.02 ± 0.056
AAGGCAAGAT	1.04 ± 0.064
TAGTTACGAT	1.04 ± 0.012
CTGGAGGACT	1.026 ± 0.0098
AAGCGTAAAA	0.979 ± 0.024
TATGTTGTCC	0.977 ± 0.018
CATTGGTAGG	0.987 ± 0.019
CTATCTCTTG	1 ± 0.017
GGTCCGGAGC	1.1577 ± 0.00066
TCCTTAACTT	1.02 ± 0.061
TTAGTTGGGA	0.9828 ± 0.0087
AGGACAAATC	0.985 ± 0.026
ATGGATTTTT	1.012 ± 0.0015
CCCGCAGTGT	4.3 ± 1.4
GTTAATAACA	1.011 ± 0.0052
TTTTTTCTAA	0.973 ± 0.015

Sequence	switch fluorescence ratio
CAGTTTTACA	1.05 ± 0.016
GAGATGGGGT	0.995 ± 0.016
TTACTGGGTT	1 ± 0.084
TTCTGGGTCT	0.9833 ± 0.0042
TTTGGCTTCG	1.042 ± 0.0038
CCTGCTGGCG	1.04 ± 0.12
GTTGAAGTTT	0.9846 ± 0.0073
TAAATTGATT	1.02 ± 0.014
TATGTGGACT	1 ± 0.057
GGAGTAGGTA	1 ± 0.031
TTTCTTTCGT	1.12 ± 0.16
CAGGGGGTAC	1.09 ± 0.086
GGGGGTCGGG	1 ± 0.036
GGAAACGGGT	1.02 ± 0.014
ATGCACTGGT	1.01 ± 0.026
ATGGACCGTT	1.02 ± 0.078
CAGAGATTTT	1.005 ± 0.0029
AGAAGGGACG	0.973 ± 0.021
GCAGGGAATT	1 ± 0.045
AGGGTACTTG	1 ± 0.03
TTATTGTGGA	0.9885 ± 0.0023
AAATTTGAAT	1.0094 ± 0.00021
GGGTCTGACT	0.9998 ± 0.0017
TTTTCTAAGG	0.989 ± 0.085
GGCTCCAGCT	0.978 ± 0.028

Sequence	switch fluorescence ratio
CATTTATGTG	0.978 ± 0.021
CATGCTTGGT	1.013 ± 0.00025
CAAGAAGTGG	0.993 ± 0.041
GCACTTTACG	1.28 ± 0.06
GGTTGATAGA	1.01 ± 0.028
TGTTTGTTCG	0.986 ± 0.021
AGAGTGGTCA	0.988 ± 0.018
TGGATCAAAT	0.9705 ± 0.0049
GGGTAGAGTG	1.006 ± 0.0019
ATGTTTTTGC	1.04 ± 0.1
ATTTCCGTTT	0.984 ± 0.013
TCTTAGCATA	1.18 ± 0.13
GTCTTGACGA	0.996 ± 0.019
CCACTTGAAA	1 ± 0.018
GAACCGTGTT	0.967 ± 0.036
TCCGGCCAGC	1.28 ± 0.025
CGAGGGAACG	1 ± 0.04
ATGTTTGGGT	1.01 ± 0.019
CGGTGCCTTG	0.978 ± 0.026
CTGGCGTTCG	0.983 ± 0.033
ATTGCTAGGG	1.03 ± 0.023
CGAAAATATC	0.989 ± 0.023
TAGTTAATCG	0.968 ± 0.017
TGTCTAGTTA	0.972 ± 0.0041
TTTGAGACAG	0.994 ± 0.026

Sequence	switch fluorescence ratio
TACAAGTTTG	0.9965 ± 0.0053
TTTGGACGCT	1.04 ± 0.038
GGCAGGGGAT	1.33 ± 0.6
TCGGCGAAAG	1.02 ± 0.023
AGCGAGGGAG	1.005 ± 0.0059
GGCTGGGTAC	1.12 ± 0.24
GTTAACAGGA	0.985 ± 0.019
TGATACTGAT	1.02 ± 0.058
CAATTGGATG	1 ± 0.073
AGATGTTCGG	0.975 ± 0.025
GACGGCGTCG	0.974 ± 0.011
TAGGGGGCAC	1 ± 0.025
ATGTGGCTAG	1.01 ± 0.032
CGCTTGGTTT	0.9911 ± 0.0063
GCGTGGAGGG	1.013 ± 0.0029
TTTTGTATTC	1.05 ± 0.12
TCTAATGAGG	1.006 ± 0.0063
GCAGGGGGTT	1 ± 0.028
GAGTTTAAAT	1.02 ± 0.022
TGAAAGTTTT	0.971 ± 0.025
GACTGGCTGG	1 ± 0.03
AACCCGGGAG	1.17 ± 0.2
CCTCTATTCA	1.06 ± 0.019
ATACATGTAG	0.9845 ± 0.0047
GGGGGATGCG	1 ± 0.048

From the supplement of paper PMC10126150
